Results as given in US11591604B2, “Gene expression in Bacteroides” (Massachusetts Institute of Technology, priority 2015, dated 2023).

Key:
Bacteroides spp = assay: pNBU1 integration and gene expression across Bacteroides and Parabacteroides species; type: cell-based
Excerpt: FIG. 11 is a graph showing that pNBU1 may be used to target, for example, B. thetaiotaomicron, B. fragilis, B. ovatus, B. vulgatus, B. caccae, B. eggerthii, B. vulgatus and Parabacteroides distasonis.
An integration vector, designated pNBU1, was created to introduce recombinant DNA into a wide range of Bacteroides species (FIG. 10). IntN1 integrase catalyzes site-specific genomic integration of the plasmid into recipient Bacteroides strains.

B. thetaiotaomicron [1] = assay: Minimum inhibitory concentration of polymyxin B with CRISPRi against BT1854; type: cell-based
Excerpt: FIGS. 4A-4F. CRISPRi-mediated repression of recombinant and endogenous genes. (FIG. 4A) Schematic of dCas9-based repression of NanoLuc. LacI^Q is expressed from PBT1311 and represses transcription from the PLacO23 promoter. Addition of IPTG inactivates LacI^Q to allow expression of dCas9 from PLacO23 dCas9 complexes with guide RNA (sgRNA) constitutively expressed from the P1 promoter to prevent the transcription of NanoLuc from the PcfiA promoter. Guide RNAs were designed to target the coding sequence of NanoLuc (NL1-4) or the PcfiA promoter (PR1-2). (FIG. 4B) Response curves of dCas9-mediated targeting the coding sequence of NanoLuc (NL1-4), the promoter (PR1-2) or a nonsense sequence (NS). Fourfold serial dilutions of IPTG starting at 500 μM or no inducer were added to cultures. Response curves were fit to a Hill Function (solid lines). (FIG. 4C) Fold repression elicited by various gRNAs in the presence (500 μM) of inducer. Bars are colored to correspond to part B. (FIG. 4D) Genomic location of endogenous genes targeted using CRISPRi. […]
Resistance to inflammation-associated cationic antimicrobial peptides, such as polymyxin B, is essential for the stability of commensal organisms in the dynamic gut environment. […] Using the minimum inhibitory concentration (MIC) of polymyxin B as a phenotypic readout, an sgRNA was designed to specifically suppress BT1854 expression.

[2] = test system: integrase recognition sequences in the memory array; assay: Integrase-mediated DNA inversion in chromosomal memory array detected by PCR; type: cell-based, B. thetaiotaomicron; conditions: integrase expressed from PAM4-rpiL*, PCR detection
Excerpt: (FIG. 3C) Integrase-mediated DNA inversion at each integrase target sequence in the memory array cassette was detected by polymerase chain reaction (PCR). Primer pairs (arrows) anneals to the interface of the integrase recognition sites and to the spacer region between recognition sites. PCR amplification occurs only after an inversion event (solid lines below the primer arrows indicate expected amplicons). (FIG. 3D) Representative PCR products are shown after recombination. − indicates no integrase, + indicates the integrase is present. PAM4-rpiL* was used to control expression of each integrase.

B. thetaiotaomicron [3] = assay: Cell growth (OD600) of P3763-rpiL*C51-Int12 strain versus rhamnose concentration; type: cell-based; conditions: even when maximally expressed
Excerpt: FIGS. 8A-8B. Integrase characterization. (FIG. 8A) Representative PCR products are shown for wild-type (unflipped) memory array at each integrase recognition sequence. “−” indicates no integrase, “+” indicates the integrase is present. PAM4-rpiL* was used to control expression of each integrase. (FIG. 8B) Cell growth of the P3763-rpiL*C51-Int12 strain is shown as optical density (OD) at 600 nm as a function of rhamnose concentration. Inducer concentrations were three-fold serial dilutions starting at 10 mM rhamnose. The leftmost data point represents the […] in the absence of inducer. Cells were grown 8 hours at 37° C. before measuring the OD600 value for each culture. Error bars represent the standard deviation of three biological replicates made on three different days (n=3).
To create an inducible memory switch, Int12 was cloned under the control of the rhamnose-inducible promoter with the rpiL*RBS variant C51 (FIG. 3E) (see also FIG. 1C, Table 1).

NanoLuc [4] = assay: Response curves of inducible promoters driving NanoLuc; type: cell-based, B. thetaiotaomicron; conditions: arabinogalactan induction
Experimental: FIGS. 2A-2E. Design and characterization of genetic sensors. (FIGS. 2A-2D) Response curves for NanoLuc under the regulated control of the rhamnose—(Rha) (FIG. 2A), chondroitin sulfate—(ChS) (FIG. 2B), arabinogalactan—(AG) (FIG. 2C), or IPTG—(FIG. 2D) inducible promoters. LacO1 operator sites were inserted in various regions (O1, O2, O3) of the PcfxA promoter (see also FIGS. 7A-7B). Inducer concentrations were applied as follows: three-fold serial dilutions starting at 10 mM Rha (FIG. 2A); three-fold serial dilutions starting at 0.4% for ChS (FIG. 2B) and AG (FIG. 2C); and four-fold serial dilutions starting at 500 μM for IPTG (FIG. 2D). The leftmost data point in each plot represents the background luminescence in the absence of inducer. Response curves were fit to a Hill function (solid lines). (FIG. 2E) Orthogonality matrix of sugar-inducible genetic systems incubated with 10 mM rhamnose (Rha), 0.2% chondroitin sulfate (ChS), 0.2% arabinogalactan (AG), or 100 mM IPTG compared to no inducer. Error bars represent the standard deviation of three biological replicates made on different days.
FIGS. 7A-7B. Synthetic IPTG-inducible promoters. (FIG. 7A) Synthetic IPTG-inducible promoters were constructed by placing LacO1 operator sites (red) upstream of the −33 element (O1), between the −33 and −7 elements (O2) and/or directly downstream of the transcription start site (O3) of the strong PcfxA promoter. Predicted −33, −7 and +1 sites are shown in bold. These promoters are regulated by the E. coli LacIQ repressor expressed from PBT1311. FIG. 7A depicts SEQ ID NOs: 217 to 220 from top to bottom, respectively. (FIG. 7B) Response curves for the synthetic IPTG-inducible systems. Cells were incubated with no inducer or four-fold serial dilutions of IPTG starting at 500 μM. Data sets for PLacO13 and PLacO23 were fit to a Hill function (solid line). Error bars represent the standard deviation of three biological replicates made on three different days (n=3).
To create inducible systems for use in B. thetaiotaomicron, parts from a large repertoire of systems that govern carbohydrate utilization were used, which included cytoplasmic transcription factors, extracytoplasmic function sigma/anti-sigma pairs, and hybrid two-component systems (HTCS), among others (64). In B. thetaiotaomicron, rhamnose metabolism is mediated by the AraC/XylS-family transcriptional activator, RhaR, which activates transcription at the PBT3763 promoter (Patel E H, et al. Res. Microbiol. 159:678-84, 2008). To assay the functionality of PBT3763 as an inducible system, 250 bp of the promoter-RBS region was cloned upstream of the start codon of BT3763 into the pNBU2 expression vector to drive expression of NanoLuc.
Two-component systems are signal-transduction mechanisms widespread in bacteria for sensing external stimuli. […] Putative HTCSs, BT3334 and BT0267, were identified in transcriptomic studies to control expression of the chondroitin sulfate (ChS)-inducible PBT3324 promoter and arabinogalactan (AG)-inducible PBT0268 promoter, respectively (64, 83). The promoter regions upstream of the BT3324 and BT0268 genes were used as the basis for two polysaccharide sensors. Chondroitin sulfate induction of PBT3324 and arabinogalactan induction PBT0268 led to a 60-fold and 29-fold regulation of output gene expression, respectively (FIGS. 2B and 2C).
Next, an IPTG-inducible system was developed. Pairs of LacO1 operator sites were inserted in the strong PcfxA promoter in three locations: upstream of the −33 element (O1), between the −33 and −7 elements (O2) or just downstream of the transcription start site (O3) (FIGS. 7A-7B). The LacI^Q repressor was expressed from the strong BT1311 promoter to achieve tight control of NanoLuc expression. Compared to the unmodified PcfxA promoter, the addition of synthetic operator sites diminished the maximum expression of NanoLuc (FIGS. 7A-7B). […]

NanoLuc [5] = assay: Luciferase activity in fecal pellets of mice colonized with arabinogalactan-inducible P0268 strain; type: in vivo, Swiss Webster mice
Experimental: FIGS. 5A-5D. In vivo function of genetic parts within B. thetaiotaomicron colonizing the mouse gut. (FIG. 5A) Experimental timeline. Specific pathogen free (SPF) Swiss Webster mice were treated for 10 days with ciprofloxacin and metronidazole and gavaged with B. thetaiotaomicron 2 days after cessation of treatment. […] Mice were provided drinking water supplemented with 5% arabinogalactan (FIG. 5B: solid line), or 25 mM IPTG (FIG. 5C: solid line) after stool collection on Day 2 (grey box), or were maintained on normal drinking water throughout the entire experiment (dashed lines). Inducer water was removed on Day 4 after stool collection. Grey boxes indicate the period of time that mice were exposed to inducer-supplemented drinking water. Luminescence values were normalized to cell density as determined by qPCR using NanoLuc-specific primers. (FIG. 5D) SPF mice were colonized with B. thetaiotaomicron containing the rhamnose-inducible integrase construct P3763-rpiL*C51-Int12. […] Absolute quantities of flipped and unflipped memory array in fecal DNA were determined by qPCR using standard curves (Experimental Procedures). Recombination frequency is expressed as the ratio of cells containing a flipped memory array (Flipped) divided by the sum total of cells containing a flipped or unflipped array (Total). […]

In the case of “pNBU1: integration vector with IntN1 integrase, SEQ ID NO: 209”, the “host range and efficiency relative to the pNBU2 plasmid” value (Bacteroides spp) is reported as “greater host range and efficiency”.

With polymyxin B the “decrease in MIC compared to WT and dCas9NS control” value (B. thetaiotaomicron [1]; dCas9BT1854 cells, dCas9 induced with IPTG) was 8 to 16 fold and the “polymyxin B resistance” value (B. thetaiotaomicron [1]; dCas9NS strains, presence or absence of IPTG induction, similar to WT) was “high levels of polymyxin B resistance”.

B1: Int12: Serine integrase, SEQ ID NO: 167 (protein)
chain: MKVAIYTRVSSAEQANEGYSIHEQKKKLISYCEIHDWNEYKVFTDAGISGGSMKRPALQKLMKHLSSFDLVLVYKLDRLTRNVRDLLDMLEEFEQYNVSFKSATEVFDTTSAIGKLFITMVGAMAEWERETIRERSLFGSRAAVREGNYIREAPFCYDNIEGKLHPNEYAKVIDLIVSMFKKGISANEIARRLNSSKVHVPNKKSWNRNSLIRLMRSPVLRGHTKYGDMLIENTHEPVLSEHDYNAINNAISSKTHKSKVKHHAIFRGALVCPQCNRRLHLYAGTVKDRKGYKYDVRRYKCETCSKNKDVKNVSFNESEVENKFVNLLKSYELNKFHIRKVEPVKKIEYDIDKINKQKINYTRSWSLGYIEDDEYFELMEEINATKKMIEEQTTENKQSVSKEQIQSINNFILKGWEELTIKDKEELILSTVDKIEFNFIPKDKKHKTNTLDINNIHFKF
With B1 the “recombination at the respective recognition sequence in the memory array” value [2] was “catalyzed recombination” and the “impact on growth of B. thetaiotaomicron” value (B. thetaiotaomicron [3]) was “did not impact growth”.

B2: PBT0268: Arabinogalactan inducible promoter + RBS, SEQ ID NO: 146 (nucleic acid)
DNA: TAAAATACACAAGTACGCGTCTTAATGGAAGATGCGTACTTTTCCATATATCAATGATCTATCCCATTTGAATGATTCCTGAACTTATATTGAACGATTTTTAGACCTGTTATAGTTAATAGCGATTATGGTCCAATTTTGGAAGTTTTTGAATGATTAGAGAACTTCTTTCTACTGGATAACTCGCACTTTTGTGACGCATTTGATGCACAACTAATACTTATTTGGTCTAAATAACTTTATAAATCTAATAGT
For B2, the “regulation of output gene expression” value (NanoLuc [4]) was 29 fold, the “luciferase activity after removal of inducer from drinking water” value (NanoLuc [5]; fecal pellets) was “rapidly returned to baseline” and the “increase of luciferase activity in fecal pellets” value (NanoLuc [5]; within a day of arabinogalactan in drinking water) was “approximately 75 fold”.
